# In publication PMC11077535:
# Experiments:
# [1] = biological target: androglobin heme-binding globin domain (circularly permuted globin domain of androglobin) (human); test: SEC; size exclusion analysis in 150 mM NaCl buffer
# [2] = biological target: androglobin heme-binding globin domain (circularly permuted globin domain of androglobin) (human); test: SEC; size exclusion analysis in a phosphate buffer, without salt
substance,measurement,setting,value
androglobin heme-binding globin domain (circularly permuted globin domain of androglobin) (domain or fragment),stoichiometry N,[1],4
same,stoichiometry N,[2],2
